# According to patent US20250388628A1 (Genentech, published 2025):
# T1: AAV receptor (AAVR) fragment comprising the domains PKD1 and PKD2 (residues V305-V499) (Homo sapiens (Human), UniProt Q8IZA0 305-499)
# T1 sequence: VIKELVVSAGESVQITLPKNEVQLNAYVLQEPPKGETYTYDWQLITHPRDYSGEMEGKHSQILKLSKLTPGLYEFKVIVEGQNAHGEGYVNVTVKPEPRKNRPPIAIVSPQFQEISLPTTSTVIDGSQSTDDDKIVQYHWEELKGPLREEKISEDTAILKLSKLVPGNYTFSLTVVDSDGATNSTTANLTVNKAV
# B1: AAV9 VP3 VLP A273N/Q387K/E500R (other)
# VP3: MASGGGAPVADNNEGADGVGSSSGNWHCDSQWLGDRVITTSTRTWALPTYNNHLYKQISNSTSGGSSNDNNYFGYSTPWGYFDFNRFHCHFSPRDWQRLINNNWGFRPKRLNFKLFNIQVKEVTDNNGVKTIANNLTSTVQVFTDSDYQLPYVLGSAHEGCLPPFPADVFMIPQYGYLTLNDGSKAVGRSSFYCLEYFPSQMLRTGNNFQFSYEFENVPFHSSYAHSQSLDRLMNPLIDQYLYYLSKTINGSGQNQQTLKFSVAGPSNMAVQGRNYIPGPSYRQQRVSTTVTQNNNSRFAWPGASSWALNGRNSLMNPGPAMASHKEGEDRFFPLSGSLIFGKQGTGRDNVDADKVMITNEEEIKTTNPVATESYGQVATNHQSAQAQAQTGWVQNQGILPGMVWQDRDVYLQGPIWAKIPHTDGNFHPSPLMGGFGMKHPPPQILIKNTPVPADPPTAFNKDKLNSFITQYSTGQVSVEIEWELQKENSKRWNPEIQYTSNYYKSNNVEFAVNTEGVYSEPRPIGTRYLTRNL
# notes: VP3-only VLP; also called AN.QK.ER
# B2: AAV2 VP3 VLP T592D/A593E (other)
# chain: MATGSGAPMADNNEGADGVGNSSGNWHCDSTWMGDRVITTSTRTWALPTYNNHLYKQISSQSGASNDNHYFGYSTPWGYFDFNRFHCHFSPRDWQRLINNNWGFRPKRLNFKLFNIQVKEVTQNDGTTTIANNLTSTVQVFTDSEYQLPYVLGSAHQGCLPPFPADVFMVPQYGYLTLNNGSQAVGRSSFYCLEYFPSQMLRTGNNFTFSYTFEDVPFHSSYAHSQSLDRLMNPLIDQYLYYLSRTNTPSGTTTQSRLQFSQAGASDIRDQSRNWLPGPCYRQQRVSKTSADNNNSEYSWTGATKYHLNGRDSLVNPGPAMASHKDDEEKFFPQSGVLIFGKQGSEKTNVDIEKVMITDEEEIRTTNPVATEQYGSVSTNLQRGNRQAADEDVNTQGVLPGMVWQDRDVYLQGPIWAKIPHTDGHFHPSPLMGGFGLKHPPPQILIKNTPVPANPSTTFSAAKFASFITQYSTGQVSVEIEWELQKENSKRWNPEIQYTSNYNKSVNVDFTVDTNGVYSEPRPIGTRYLTRNL
# notes: VP3-only VLP
# What was measured:
# [1] = molecular target: AAV receptor (AAVR) on HEK293 cells (Homo sapiens (Human)) (UniProt Q8IZA0); test: cell-based or functional assay
# AAV receptor (AAVR) on HEK293 cells (Homo sapiens (Human)), sequence (Q8IZA0 whole entry, the tested form may be a part): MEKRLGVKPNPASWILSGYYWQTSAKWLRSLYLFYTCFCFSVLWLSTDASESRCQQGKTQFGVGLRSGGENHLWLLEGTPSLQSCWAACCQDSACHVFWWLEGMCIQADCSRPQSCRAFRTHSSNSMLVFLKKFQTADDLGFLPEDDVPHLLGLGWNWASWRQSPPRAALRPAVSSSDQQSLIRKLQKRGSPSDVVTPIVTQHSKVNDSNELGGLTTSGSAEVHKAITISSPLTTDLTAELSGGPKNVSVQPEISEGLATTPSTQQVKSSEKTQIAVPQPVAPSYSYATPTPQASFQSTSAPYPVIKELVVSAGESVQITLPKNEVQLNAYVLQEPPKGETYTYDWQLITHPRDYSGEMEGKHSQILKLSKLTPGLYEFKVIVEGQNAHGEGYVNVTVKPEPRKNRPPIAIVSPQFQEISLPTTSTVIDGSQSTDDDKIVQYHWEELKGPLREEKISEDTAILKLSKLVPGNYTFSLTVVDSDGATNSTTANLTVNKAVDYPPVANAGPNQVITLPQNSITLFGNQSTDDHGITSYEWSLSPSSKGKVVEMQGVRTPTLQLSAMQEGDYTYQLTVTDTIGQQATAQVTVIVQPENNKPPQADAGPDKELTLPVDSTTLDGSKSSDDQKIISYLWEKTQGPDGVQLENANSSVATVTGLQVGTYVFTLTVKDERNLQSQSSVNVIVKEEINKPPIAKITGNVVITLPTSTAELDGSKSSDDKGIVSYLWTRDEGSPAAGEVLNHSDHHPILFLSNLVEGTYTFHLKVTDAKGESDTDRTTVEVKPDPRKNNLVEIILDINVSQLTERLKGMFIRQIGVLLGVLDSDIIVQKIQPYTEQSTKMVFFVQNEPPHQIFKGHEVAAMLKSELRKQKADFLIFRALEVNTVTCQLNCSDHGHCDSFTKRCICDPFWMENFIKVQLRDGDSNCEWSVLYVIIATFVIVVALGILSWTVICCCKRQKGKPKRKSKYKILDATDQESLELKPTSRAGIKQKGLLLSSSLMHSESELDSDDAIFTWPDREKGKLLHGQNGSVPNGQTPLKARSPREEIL
# [2] = molecular target: T1, AAV receptor (AAVR) fragment comprising …; test: SPR, three replicates; captured AAV9 VP3 VLP, AAVR analyte
# [3] = molecular target: T1, AAV receptor (AAVR) fragment comprising …; test: SPR; captured AAV9 VP3 VLP, AAVR analyte
# [4] = molecular target: T1, AAV receptor (AAVR) fragment comprising …; test: SPR; against wild-type VLP
# [5] = molecular target: T1, AAV receptor (AAVR) fragment comprising …; test: SPR, single replicate; affinity against wild-type AAV9 VLP
# [6] = molecular target: T1, AAV receptor (AAVR) fragment comprising …; test: SPR, single replicate; captured AAV9 VP3 VLP, AAVR analyte
# [7] = molecular target: T1, AAV receptor (AAVR) fragment comprising …; test: SPR, three replicates; affinity against wild-type AAV9 VLP
# [8] = molecular target: T1, AAV receptor (AAVR) fragment comprising …; test: SPR; affinity against wild-type AAV2 VLP
molecule,measurement,setting,value
"AAV9 comprising a Q387K amino acid substitution mutation (full AAV with VP1, VP2 and VP3)",Expression of a transgene (GFP) in transduced HEK293 cells,[1],3 fold
B1,Kd,[2],20 nM
same,koff,[2],0.000667 s⁻¹
same,kon,[2],33300 M⁻¹ s⁻¹
same,Kd,[3],20 nM
same,koff,[3],0.000667 s⁻¹
same,kon,[3],33300 M⁻¹ s⁻¹
same,KD Fold Change,[4],117 fold
same,Fold change vs WT,[5],53 fold
same,Kd,[6],80 nM
same,koff,[6],0.000962 s⁻¹
same,kon,[6],11800 M⁻¹ s⁻¹
same,Fold change vs WT,[7],117 fold
B2,Fold change vs WT,[8],~6 fold
